# Data from article PMC2997469 (Bioorganic & medicinal chemistry letters, 2010).
# No end group written: not given here.
# T1: cIAP-1 BIR3 protein
# T1 chain: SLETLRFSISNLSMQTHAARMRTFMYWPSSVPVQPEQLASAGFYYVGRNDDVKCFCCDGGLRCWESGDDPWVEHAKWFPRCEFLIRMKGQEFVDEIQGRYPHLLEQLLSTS
# T2: XIAP protein containing linker-BIR2–BIR3
# T2 chain: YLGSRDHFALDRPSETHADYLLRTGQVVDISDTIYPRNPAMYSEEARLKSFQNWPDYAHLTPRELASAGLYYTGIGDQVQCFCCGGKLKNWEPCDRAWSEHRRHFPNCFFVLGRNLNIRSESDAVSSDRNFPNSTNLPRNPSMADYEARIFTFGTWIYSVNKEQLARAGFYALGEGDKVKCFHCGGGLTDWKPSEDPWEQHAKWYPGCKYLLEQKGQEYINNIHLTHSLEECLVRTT
# B1: PSmac-21 (compound 1), cyclopeptidic Smac mimetic (peptide)
# peptide: AKPF
# modifications: also: cyclopeptidic structure not given here
# Columns and labels:
# cIAP-1 BIR3 protein = target: T1, cIAP-1 BIR3 protein; experiment: fluorescence polarisation
# [1] = target: T2, XIAP protein containing linker-BIR2–BIR3; experiment: fluorescence polarisation
binder,measurement,setting,value
B1,Ki,cIAP-1 BIR3 protein,84 ± 9 nM
same,IC50 site 1,[1],1 nM
same,IC50 site 2,[1],481 nM
